From patent publication US20240255495 (UNIVERSITY OF PITTSBURGH-OF THE COMMONWEALTH SYSTEM OF …, published 2024)

T1: PTK7 (protein tyrosine kinase 7), recombinant (UniProt Q13308 Q13308:31-704)
T1 sequence: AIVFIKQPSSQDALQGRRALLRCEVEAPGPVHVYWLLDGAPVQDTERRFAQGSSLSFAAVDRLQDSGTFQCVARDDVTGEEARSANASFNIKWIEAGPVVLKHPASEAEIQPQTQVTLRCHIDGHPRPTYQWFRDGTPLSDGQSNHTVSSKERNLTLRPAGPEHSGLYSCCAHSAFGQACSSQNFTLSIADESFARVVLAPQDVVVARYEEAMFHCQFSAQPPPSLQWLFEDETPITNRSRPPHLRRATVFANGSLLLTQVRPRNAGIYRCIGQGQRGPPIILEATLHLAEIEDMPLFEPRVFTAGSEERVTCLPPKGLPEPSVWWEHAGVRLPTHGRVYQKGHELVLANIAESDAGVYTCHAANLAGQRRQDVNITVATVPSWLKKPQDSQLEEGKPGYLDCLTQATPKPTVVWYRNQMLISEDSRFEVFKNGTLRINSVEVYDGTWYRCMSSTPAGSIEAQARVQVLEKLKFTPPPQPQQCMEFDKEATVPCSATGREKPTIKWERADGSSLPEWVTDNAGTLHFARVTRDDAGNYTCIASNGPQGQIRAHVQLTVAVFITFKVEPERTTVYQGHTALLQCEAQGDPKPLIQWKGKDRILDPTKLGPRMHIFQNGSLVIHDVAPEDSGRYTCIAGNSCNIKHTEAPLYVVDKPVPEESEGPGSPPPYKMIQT


What was measured:
thrombin = thrombin (UniProt P00734;P00734 P00734:328-363,P00734:364-622); assay: FP
[1] = biological target: T1, PTK7 (protein tyrosine kinase 7), …

| Binder | Kd (thrombin) | binding result [1] |
| --- | --- | --- |
| GGTTGGTGTGGTTGG (ssDNA) [TBA unmodified] | 220 nM |  |
| ATCTAACTGCTGCGCCGCCGGGAAAATACTGTACGGTTAGA (ssDNA, T27 conjugated to pyridinium oxime catalyst PyOx) [sgc8c(27)-PyOx] |  | binds |
